Test results: paper PMC9977947, “Targeting ATAD3A-PINK1-mitophagy axis overcomes chemoimmunotherapy resistance by redirecting PD-L1 to mitochondria” (Cell Research, 2023)
No end group written: not given here.

Target: T1, Flag-labeled truncated PINK1 (amino acids 321-509) (UniProt Q9BXM7 321-509)
T1 construct: PINK1, amino acids 321-509; also called C-lobe of kinase domain of PINK1; kinase domain C; source: HEK293T, purified using 3x Flag peptide
Test: pull-down; purified Flag-PINK1 (full length or truncated) incubated with biotin-labeled PD-L1 ICD peptide in 25 mM Tris-HCl pH 7.4, 150 mM NaCl, 1 mM EDTA, 0.05% NP-40, 10% glycerol for 12 h at 4 °C; streptavidin sepharose beads or anti-Flag M2 affinity gel 1.5 h; five washes; immunoblot
Conditions: both partners purified

T1 sequence (Q9BXM7 321-509): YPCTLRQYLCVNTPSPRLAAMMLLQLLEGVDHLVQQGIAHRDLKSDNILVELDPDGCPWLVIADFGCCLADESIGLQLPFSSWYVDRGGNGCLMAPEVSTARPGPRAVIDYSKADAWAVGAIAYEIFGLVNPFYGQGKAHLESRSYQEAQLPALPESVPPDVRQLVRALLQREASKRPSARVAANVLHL

binding result: binds
B1: Biotin-labeled PD-L1 ICD peptide (amino acids 262-290) (peptide, UniProt Q9NZQ7 262-290, looked up)
peptide: RKGRMMDVKKCGIQDTNSKKQSDTHLEET
modifications: also: biotin-labeled, position not given here
notes: PD-L1 (CD274), intracellular domain, amino acids 262-290; also called intracellular domain of PD-L1; intracellular region of PD-L1; source: synthetic peptide (GenScript)
